Source: PMC5897525 (Nature Communications, 2018)

Molecular target: T1, natural Fel d 1 (Felis catus, UniProt P30438;P30440)
T1 construct: Fel d 1 Chain 1, cat, of the natural Fel d 1 heterodimer; Fel d 1 Chain 2, cat, of the natural Fel d 1 heterodimer; also called nFel d 1; source: bought: Indoor Biotech, Catalog #LTN-FD-1
Experiment: SPR; Biacore T200; REGN1909 (94-163 RU) captured on a goat anti-human Fcγ coupled surface; nFel d 1 or rFel d 1.mmh injected in 2-fold dilutions; 10 mM HEPES, 150 mM NaCl, 3 mM MgCl2, 3 mM CaCl2, 0.05% P20, pH 7.4; 1:1 binding model with mass transport limitation
Settings: both partners purified

B1: REGN1909 (antibody, V domains shown)
VH: EVQLVESGGGLVQPGGSLRLSCAASGFTFSSYAMSWVRQAPGKGLEWVSAISGRGYNADYADSVKGRFTISRDNSKNTLYLQMNSLRAEDTAVYYCAKLEYFDYWGQGTLVTVSS
VL: DIQMTQSPSTLSASVGDRVTITCRASQSISSWLAWYQQKPGKAPKLLIYKASSLESGVPSRFSGSGSGTDFTLTISSLRPEDFATYYCQQYNSYPLTFGGGTKVEIK
B1: binds.
